According to the nanobody polyreactivity screen of Harvey et al. (2022):

Assay: yeast display, Sf9 membrane polyspecificity reagent, FACS + sequencing; frameworks hold sequencing errors
Procedure, shortened: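 Polyreactivity labels are assigned by the sorting gate from which each nanobody was recovered. The gates were low and high (top ~1%), set on anti-HA fluorescence for expression and streptavidin fluorescence for reagent binding. Before sorting, galactose-induced (36–48 hours) yeast display cells were stained for 1 hour at 4 °C with 10% biotinylated, detergent-solubilized Sf9 membrane reagent.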
With “QVQLVESGGGLVQAGGSLRLSCAASGRTIRWYAMGWYRPARGKERELVAVISRGGGSTTYADSVKGRFTISRDNAKNTVYLQMNSLKPEDTAVYYCAAYWGRTGYYGYDYYYWGQGTQVTVSS” the “polyreactivity (PSR sort gate)” value was “high polyreactivity”. In the case of “QVQLVESGGGLVQAGGSLRLSCAASGRTIRYNAMGWYRQAPGKERELVAAITGSGGSTYYADSVKGRFTISRDNAKNTVYLQMNSLKPEDTAVYYCNAVGIWFPIRLIVPYDYWGQGTQVTVSS”, the “polyreactivity (PSR sort gate)” value is reported as “low polyreactivity”. With “QVQLVESGGGLVQAGGSLRLSCAASGRTIRYYTMGWYRQAPGKERELVAAISRSGGNTYYADSVKGRFTISRDNAKITVYLQMNSLKPEETAVYYCNKEYRHYVGRHDYWGQGTQVTVSS” the “polyreactivity (PSR sort gate)” value was “high polyreactivity”. With “QVQLVESGGGLVQAGGSLRLSCAASGRTIRYYTMGWYRQAPGKETELVATITGTGSTNYADSVKGRFTISRDNAKNTVYFQMNSLKPEDTEVYYCNARWDFVGTWRIYNYWGQGTQVTVSS” the “polyreactivity (PSR sort gate)” value was “high polyreactivity”. With “QVQLVESGGGLVQAGGSLRLSCAASGRTISKNAMGWYRQAPGKERELVAAISGSGGSTYYADSVKGRFTISRDNAKNTVYLQMNSLKPEDTAVYYCADRYTVSRSGYWGQGTQVTVSS” the “polyreactivity (PSR sort gate)” value was “high polyreactivity”. In the case of “QVQLVESGGGLVQAGGSLRLSCAASGRTISRNAMGWYRQAPGTERELVASISRSGGSTYYADSVKGRFTISRDNAKNTVYLQMNSLKPEETAVYYCAASYWHRRYDYWGQGTQVTVSS”, the “polyreactivity (PSR sort gate)” value is reported as “high polyreactivity”. With “QVQLVESGGGLVQAGGSLRLSCAASGRTISSYAMGWSRQAPGKERELVAAISRSGGNTYYPDSVKGRFTISRDHAKNTVYLQMNSLKPEDTAVYYCNARGRTGFQADKFGYWGQGTQVTVSS” the “polyreactivity (PSR sort gate)” value was “high polyreactivity”. In the case of “QVQLVESGGGLVQAGGSLRLSCAASGRTIWRYGMGWYRQAPGKERELVAAITDSGDSTYYADSVKGRFTISRDNAKNTVYLQMNSLKPEDTAVYYCAASDVVFALNGYYPGEDDYWGQGTQVTVSS”, the “polyreactivity (PSR sort gate)” value is reported as “low polyreactivity”. In the case of “QVQLVESGGGLVQAGGSLRLSCAASGRTIWYYAMGWYRQAPGKERELVAAITYRGGSTYYADSVKGRFTISRDNVKNTVYLQMNSLKPEDTAVYFCAKENYYGGGFDYWGQGTQVTVSS”, the “polyreactivity (PSR sort gate)” value is reported as “high polyreactivity”. With “QVQLVESGGGLVQAGGSLRLSCAASGRTIYGYAMGWYRQAPGKERELVARIRSGGSTNYADSVKGRFTISRDNAKNTVYLQMNSLKPEDTAVYYCAARPGAAGYKYYYWGQGTQVTVSS” the “polyreactivity (PSR sort gate)” value was “high polyreactivity”. In the case of “QVQLVESGGGLVQAGGSLRLSCAASGRTIYVYAMGWYRQAPGKERELVADINWSGGSTYYADSVKGRFTISRDNAKNTVYLQMNSLKPEDTAVYYCAADDWVRRRSHSGPEGYVYWGQGTQVTVSS”, the “polyreactivity (PSR sort gate)” value is reported as “low polyreactivity”. With “QVQLVESGGGLVQAGGSLRLSCAASGRTLAKNAMGWYRQAPGKERELVAAISRRGGSTYYADSVKGRFTISRDNAKNTVYLQMNSLKPEDTAVYYCARASRQGYYQLSYDEFDYWGQGTQVTVSS” the “polyreactivity (PSR sort gate)” value was “high polyreactivity”. With “QVQLVESGGGLVQAGGSLRLSCAASGRTLAPYAMGWYRQAPGKERELVAISTSGGSTYYADSVKGRFTISRDNGKNTVYLQMNSRKPEDNAVYYCAADGNSTGVYWWFYGFDYWGQGTQVTVSS” the “polyreactivity (PSR sort gate)” value was “low polyreactivity”. For “QVQLVESGGGLVQAGGSLRLSCAASGRTLDSNAMGWYRQAPGKERDLVATISKRGGNTYYADSVKGRFTISRDNAKNTVYLQMNSLKPEDTAVYYCAKDVPPEYPTSSYDYWGQGTQVTVSS”, the “polyreactivity (PSR sort gate)” value was “low polyreactivity”. With “QVQLVESGGGLVQAGGSLRLSCAASGRTLDSNAMGWYRQAPGKERELVAAISSAGSTNYADSVKGRFTISRDNAKNTVYLQMNSLKPEDTAVYYCAADLIGSHDYWGQGTQVTVSS” the “polyreactivity (PSR sort gate)” value was “low polyreactivity”. With “QVQLVESGGGLVQAGGSLRLSCAASGRTLELYVMGWYRQAPGKERELVAAIRWGTGSTYYADSVKGRFTISRDNAKNTVYLQMNSLKPEDTAVYYCAAVLRQYYRAYDYWGQGTQVTVSS” the “polyreactivity (PSR sort gate)” value was “high polyreactivity”. In the case of “QVQLVESGGGLVQAGGSLRLSCAASGRTLERYSMGWYRQAPGKEREFVAAIRWSGGSTYYADSVKGRFTISRDNAKNTVYLQMNSLKPEDTAVYYCNADWQSYYWAGDGYDYWGQGTQVTVSS”, the “polyreactivity (PSR sort gate)” value is reported as “low polyreactivity”. In the case of “QVQLVESGGGLVQAGGSLRLSCAASGRTLFGYAMGWYRQAPGKERELVAAITYGATSTYAHSVKGRFTISRDNAKNTVYLQMNSLKPEDTAVYYCNAYTPTDGFDYWGQGTQVTVSS”, the “polyreactivity (PSR sort gate)” value is reported as “low polyreactivity”. With “QVQLVESGGGLVQAGGSLRLSCAASGRTLFSNAMGWYRQAPGKERELVASITSGDSTYYADSVKGRFTISRDNAKNTVYLQMNSLKPEDTSVYYCAADPSIVDGEYGYWGQGTQVTVSS” the “polyreactivity (PSR sort gate)” value was “low polyreactivity”. In the case of “QVQLVESGGGLVQAGGSLRLSCAASGRTLFYYTMGWYRQAPGKERELVAAISSGDSTNYADSVKGRFTISRDNAKNTVYLQMNRLKPEDTAVYYCATQYLLDYKKTYRTYYSPYDYWGQGTQVTVSS”, the “polyreactivity (PSR sort gate)” value is reported as “low polyreactivity”. With “QVQLVESGGGLVQAGGSLRLSCAASGRTLGANAMGWYRQAPGKEREFVAAISYSDTRTYADSVKGRFTISRDNAKNTVYFQMNSLKPEDTAVYYCAADYYTWYGILYDYWGQGTQVTVSS” the “polyreactivity (PSR sort gate)” value was “low polyreactivity”. For “QVQLVESGGGLVQAGGSLRLSCAASGRTLGPNPMGWYRPAPGKERELVAAITYNAGSTYYADSVKGRFTISRDNAKNTVYLQMNSLKPEDTAVYYCAARSTQKWTKYYYWGQGTQVTVSS”, the “polyreactivity (PSR sort gate)” value was “high polyreactivity”. For “QVQLVESGGGLVQAGGSLRLSCAASGRTLGQNAMGWYRQAPGKERELVASIRSGGITDYADSVKGRFTISRDNAKNTVYLQMNCLKPEDTAVYYCAADTYGYQGSAGGHWGQGTQVTVSS”, the “polyreactivity (PSR sort gate)” value was “low polyreactivity”. For “QVQLVESGGGLVQAGGSLRLSCAASGRTLGQYEMGWYRQAPGTERELVAAITSSDGITYYADSVKGRFTISRDNAKNTVYLQMNSLKPEDTAVYYCASDYPYYWYWTYLYDYCGQGTQVTVSS”, the “polyreactivity (PSR sort gate)” value was “low polyreactivity”. In the case of “QVQLVESGGGLVQAGGSLRLSCAASGRTLGVYAMGWYRPAPGKERELVATITAGGSITSYADSVKGRFTISRDNAKNTVYLQMNSLKPEDTAVYYCAADVPGNYRKYRYGRASSHDYWGQGTQVTVSS”, the “polyreactivity (PSR sort gate)” value is reported as “low polyreactivity”. In the case of “QVQLVESGGGLVQAGGSLRLSCAASGRTLGYKAMVWYRQAPGKERELVAAISWSGGATYYADSVKGRFTISRDNAKNTVYLQMNSLKPEDTAVYYCAALNNRYPLYNYWGQGTQVTVSS”, the “polyreactivity (PSR sort gate)” value is reported as “low polyreactivity”. In the case of “QVQLVESGGGLVQAGGSLRLSCAASGRTLHANTMGMYRQAPGKERELVAAITRGGGNTYYADSVKGRFTISRDNAKNTVYLQMNSLKPEDTAVYYCNADVSGYLWYEYDYWGQGTQVTVSS”, the “polyreactivity (PSR sort gate)” value is reported as “low polyreactivity”. With “QVQLVESGGGLVQAGGSLRLSCAASGRTLHSYAMGWYRQAPGKERELVAAISGGASTYADSVKGRFTISRDNAMITVYFQMNSLKPEDTAVYYCAADDDPVPTYEYDVWGQGTQVTVSS” the “polyreactivity (PSR sort gate)” value was “low polyreactivity”. For “QVQLVESGGGLVQAGGSLRLSCAASGRTLHYYAMGWYRQAPGKERELVARINWSGGSTYYADSVKGRFTISRDNAKNTVYLQMNSLKPEDTAVYYCARTSYYWSSFDYWGQGTQVTVSS”, the “polyreactivity (PSR sort gate)” value was “high polyreactivity”. With “QVQLVESGGGLVQAGGSLRLSCAASGRTLIGNAMGWYRQAPGKEREFVAAITRSGGDTYYADSVKGRFTISRDNAKNTVYLQMNSLKPEDTAVYYCAADGQLHMDYWGQGTQVTVSS” the “polyreactivity (PSR sort gate)” value was “high polyreactivity”. For “QVQLVESGGGLVQAGGSLRLSCAASGRTLKLNAMGWYRQAPGKERELVAAISWRGGSTYYADSVKGRFTISRDNAKNTVYLQMNSLKPEDTAVYYCAAEATAGFWSYGTYDYWGQGTQVTVSS”, the “polyreactivity (PSR sort gate)” value was “high polyreactivity”. For “QVQLVESGGGLVQAGGSLRLSCAASGRTLKTYVMGWYRQAPGKERELVAAITSGGRTYYADSVKGRFTISRDNAKNTVYVQMNSLKPEDTAVYYCNAQLYWSRSWYLFDNTSFDYWGQGTQVTVSS”, the “polyreactivity (PSR sort gate)” value was “low polyreactivity”. In the case of “QVQLVESGGGLVQAGGSLRLSCAASGRTLKYNAMGWYRQAPGKERELVAAISYSGSSTYYADSVKWRFTISRDNAKNTVYLQMNSLKPEDNAVYYCNSARPTAAYDYWGQGTQVTVSS”, the “polyreactivity (PSR sort gate)” value is reported as “low polyreactivity”. With “QVQLVESGGGLVQAGGSLRLSCAASGRTLKYNVMGWYRQAPGKERELVASITSRGGSTRYADSVKGRFTISRDNAKNTVYLLMNSLKPEDTAVYYCAARYTTARSSYDYWGQGTQVTVSS” the “polyreactivity (PSR sort gate)” value was “high polyreactivity”. With “QVQLVESGGGLVQAGGSLRLSCAASGRTLPIYAMGWYRQAPGKERELVAAISWSGASTYADSVKGRFTISRDNAKYTVYLQMNSLKPEDTAVYYCAAYYESWYSSYGYGYWGQGTQVTVSS” the “polyreactivity (PSR sort gate)” value was “low polyreactivity”. With “QVQLVESGGGLVQAGGSLRLSCAASGRTLPPNAMGWYRQAPGKERELVAGITWSGGSTYYADSVKGRFTISRDNAKNTVYLQMNSLKPEDTAVYYCAASRSFPGYGLYYYWGQGTQVTVSS” the “polyreactivity (PSR sort gate)” value was “low polyreactivity”. For “QVQLVESGGGLVQAGGSLRLSCAASGRTLPYYMGWYRQAPGKERELVAAITNGDSTYYADSVKGRFTISRDNAKNTVYLQMNSLKPEDTAVYYCNVVTYVKYGYWGQGTQVTVSS”, the “polyreactivity (PSR sort gate)” value was “high polyreactivity”. For “QVQLVESGGGLVQAGGSLRLSCAASGRTLQGYAMGWYRQAPGKERELVAAISRGGGSTYADSVKGRFTISRDNAKNTVYLQMNSLKPEDTAVYYCNKKSYYRYYWGQGTQVTVSS”, the “polyreactivity (PSR sort gate)” value was “high polyreactivity”. With “QVQLVESGGGLVQAGGSLRLSCAASGRTLQTYVMGWYRQAPGKERELVAAITRGGGSTYYADSVKGRFTISRDNGKNTVFLQMNSLKPVDTSVYYCAASALRFNSRFSHWYIYWGQGTQVTVSS” the “polyreactivity (PSR sort gate)” value was “high polyreactivity”. With “QVQLVESGGGLVQAGGSLRLSCAASGRTLRGNAMGWYRQAPGKERELVAVITRRGGSTYYADSVKGRFTISRDNAKNTFYLQMNSLKPEDTAVYYCAAVPYYYKYDYWGQGTQVTVSS” the “polyreactivity (PSR sort gate)” value was “high polyreactivity”. In the case of “QVQLVESGGGLVQAGGSLRLSCAASGRTLRIYAMGWYRQAPGKERELVAAITSSGRTNYADSVKGRFTISRDNAKNTVYLQMNSLKPEDTAVYYCAAVTPAVNYFRAASGYYYWGQGTQVTVSS”, the “polyreactivity (PSR sort gate)” value is reported as “low polyreactivity”. In the case of “QVQLVESGGGLVQAGGSLRLSCAASGRTLRRYAMGWYRQAPGKERELVAGISRNGGSTYYADSVKGRFTISRDNAKNTVYLQMNSLKPEDTAVYYCNADDKAQSDYWGQGTQVTVSS”, the “polyreactivity (PSR sort gate)” value is reported as “high polyreactivity”. In the case of “QVQLVESGGGLVQAGGSLRLSCAASGRTLRWYAMGWYRQAPGKERELVAAITWRGGSTRYADSVKGRFTISRDNAKNTVYLQMNSLKPEDTAVYYCNKYYYRTIEGDYWGQGTQVTVSS”, the “polyreactivity (PSR sort gate)” value is reported as “high polyreactivity”.
